Results reported in PMC2713992 (Nature immunology, 2009).

Target: complement component 3b (C3b) (human, UniProt P01024 23-667; P01024 749-1663)
Assay: SPR

Sequence of complement component 3b (C3b) (P01024 23-667, chain 1 of 2): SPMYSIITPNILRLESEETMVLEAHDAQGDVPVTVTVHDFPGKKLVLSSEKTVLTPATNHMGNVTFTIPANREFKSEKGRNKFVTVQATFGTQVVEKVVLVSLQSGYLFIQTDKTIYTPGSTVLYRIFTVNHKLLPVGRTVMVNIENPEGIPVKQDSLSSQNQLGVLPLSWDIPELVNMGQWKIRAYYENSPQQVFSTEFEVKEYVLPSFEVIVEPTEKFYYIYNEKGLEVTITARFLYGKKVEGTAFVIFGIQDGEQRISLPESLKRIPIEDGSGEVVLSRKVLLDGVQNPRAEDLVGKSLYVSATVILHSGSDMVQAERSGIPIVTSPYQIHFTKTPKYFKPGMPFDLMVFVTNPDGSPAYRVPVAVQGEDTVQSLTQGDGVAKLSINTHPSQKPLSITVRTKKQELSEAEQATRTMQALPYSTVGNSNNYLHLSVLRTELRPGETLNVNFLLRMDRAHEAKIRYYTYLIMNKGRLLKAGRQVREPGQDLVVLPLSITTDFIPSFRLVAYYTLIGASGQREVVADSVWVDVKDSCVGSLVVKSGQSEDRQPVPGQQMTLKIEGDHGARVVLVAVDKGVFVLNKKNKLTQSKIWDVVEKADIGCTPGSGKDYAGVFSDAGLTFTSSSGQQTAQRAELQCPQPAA
Sequence of complement component 3b (C3b) (P01024 749-1663, chain 2 of 2): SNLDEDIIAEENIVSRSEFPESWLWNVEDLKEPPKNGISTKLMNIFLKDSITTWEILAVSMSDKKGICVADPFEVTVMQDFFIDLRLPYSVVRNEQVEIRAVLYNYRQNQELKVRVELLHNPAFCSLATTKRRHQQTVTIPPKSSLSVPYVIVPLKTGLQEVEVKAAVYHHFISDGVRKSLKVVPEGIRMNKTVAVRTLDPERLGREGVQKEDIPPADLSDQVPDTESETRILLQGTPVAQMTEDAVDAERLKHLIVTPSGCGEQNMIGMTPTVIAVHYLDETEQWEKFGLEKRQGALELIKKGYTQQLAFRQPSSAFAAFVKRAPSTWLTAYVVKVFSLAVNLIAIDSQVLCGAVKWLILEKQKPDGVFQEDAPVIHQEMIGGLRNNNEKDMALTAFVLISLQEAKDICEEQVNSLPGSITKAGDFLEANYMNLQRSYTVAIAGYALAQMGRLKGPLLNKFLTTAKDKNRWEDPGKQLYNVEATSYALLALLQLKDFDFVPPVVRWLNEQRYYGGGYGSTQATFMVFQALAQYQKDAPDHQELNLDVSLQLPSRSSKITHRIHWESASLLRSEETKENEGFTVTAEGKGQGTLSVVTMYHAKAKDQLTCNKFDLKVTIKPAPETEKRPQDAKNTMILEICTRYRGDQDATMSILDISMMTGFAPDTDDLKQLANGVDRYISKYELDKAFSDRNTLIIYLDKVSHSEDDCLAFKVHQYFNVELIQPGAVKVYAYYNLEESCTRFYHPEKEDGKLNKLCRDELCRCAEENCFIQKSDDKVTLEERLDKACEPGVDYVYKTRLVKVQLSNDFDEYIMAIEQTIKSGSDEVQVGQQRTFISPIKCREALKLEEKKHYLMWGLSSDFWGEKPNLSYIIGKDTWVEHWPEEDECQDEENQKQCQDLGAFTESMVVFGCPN

B1: FH(1–4), recombinant N-terminal four CCP domains (CCP1-4, residues 1–246) of human factor H (domain or fragment, UniProt P08603 19-264, looked up)
chain: EDCNELPPRRNTEILTGSWSDQTYPEGTQAIYKCRPGYRSLGNVIMVCRKGEWVALNPLRKCQKRPCGHPGDTPFGTFTLTGGNVFEYGVKAVYTCNEGYQLLGEINYRECDTDGWTNDIPICEVVKCLPVTAPENGKIVSSAMEPDREYHFGQAVRFVCNSGYKIEGDEEMHCSDDGFWSKEKPKCVEISCKSPDVINGSPISQKIIYKENERFQYKCNMGYEYSERGDAVCTESGWRPLPSCEE
- Kd: 11 ± 2 µM
- stoichiometry N: 1
